The results in this text go back to patent US20040248211A1, “ICAM-related protein” (priority 1992, published 2004).

For test [1], the target named is LFA-1 (CD11a/CD18) on cells (human) (UniProt P20701). Nature of the test: SKW3 cell adhesion to plate-bound shICAM-R, peptide 1-2 mg/ml.
A further test concerns the target ICAM-1/IgG chimera (UniProt P05362). Kind of test: adhesion of transfected CHO cells to immobilized chimera, with PMA.
Test [2] addresses LFA-1 (CD11a/CD18) on cells (human) (UniProt P20701). Nature of the test: neutrophil adhesion to immobilized ICAM-R/Ig, mAb 15 µg/ml.
For test [3] the target is unchanged. Nature of the test: JY cell adhesion to shICAM-R, mAb 10 µg/ml.

LFA-1 (CD11a/CD18) on cells (human), sequence (P20701 26-1170, chain 1 of 2): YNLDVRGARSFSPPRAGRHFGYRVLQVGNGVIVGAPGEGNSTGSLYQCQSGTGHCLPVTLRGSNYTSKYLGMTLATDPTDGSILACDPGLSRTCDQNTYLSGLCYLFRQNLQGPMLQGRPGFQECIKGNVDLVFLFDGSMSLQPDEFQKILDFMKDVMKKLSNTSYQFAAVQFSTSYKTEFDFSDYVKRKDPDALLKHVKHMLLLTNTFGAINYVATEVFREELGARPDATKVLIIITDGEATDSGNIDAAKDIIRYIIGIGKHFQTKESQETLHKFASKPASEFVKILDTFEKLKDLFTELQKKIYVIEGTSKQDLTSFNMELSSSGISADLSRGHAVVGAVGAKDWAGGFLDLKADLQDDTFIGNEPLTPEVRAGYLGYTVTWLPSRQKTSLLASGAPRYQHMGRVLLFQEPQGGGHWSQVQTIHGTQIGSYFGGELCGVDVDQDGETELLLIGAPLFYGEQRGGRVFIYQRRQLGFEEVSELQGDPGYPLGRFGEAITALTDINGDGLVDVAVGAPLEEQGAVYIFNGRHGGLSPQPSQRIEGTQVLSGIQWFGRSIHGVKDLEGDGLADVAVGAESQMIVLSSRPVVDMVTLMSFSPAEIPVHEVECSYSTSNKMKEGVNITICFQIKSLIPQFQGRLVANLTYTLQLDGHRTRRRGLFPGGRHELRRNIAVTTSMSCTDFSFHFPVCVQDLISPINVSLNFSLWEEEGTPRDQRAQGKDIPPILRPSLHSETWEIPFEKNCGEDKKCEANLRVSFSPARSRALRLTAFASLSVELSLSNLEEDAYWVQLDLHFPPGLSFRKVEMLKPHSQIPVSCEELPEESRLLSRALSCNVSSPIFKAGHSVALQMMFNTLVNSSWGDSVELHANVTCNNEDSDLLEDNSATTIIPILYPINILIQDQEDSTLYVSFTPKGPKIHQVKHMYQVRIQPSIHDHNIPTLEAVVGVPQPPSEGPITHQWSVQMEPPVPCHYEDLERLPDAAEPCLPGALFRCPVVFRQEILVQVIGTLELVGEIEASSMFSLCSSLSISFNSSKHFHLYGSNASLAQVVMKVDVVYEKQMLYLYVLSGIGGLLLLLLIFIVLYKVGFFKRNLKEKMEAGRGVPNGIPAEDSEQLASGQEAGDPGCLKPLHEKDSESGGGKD
LFA-1 (CD11a/CD18) on cells (human), sequence (P05107 23-769, chain 2 of 2, further chain): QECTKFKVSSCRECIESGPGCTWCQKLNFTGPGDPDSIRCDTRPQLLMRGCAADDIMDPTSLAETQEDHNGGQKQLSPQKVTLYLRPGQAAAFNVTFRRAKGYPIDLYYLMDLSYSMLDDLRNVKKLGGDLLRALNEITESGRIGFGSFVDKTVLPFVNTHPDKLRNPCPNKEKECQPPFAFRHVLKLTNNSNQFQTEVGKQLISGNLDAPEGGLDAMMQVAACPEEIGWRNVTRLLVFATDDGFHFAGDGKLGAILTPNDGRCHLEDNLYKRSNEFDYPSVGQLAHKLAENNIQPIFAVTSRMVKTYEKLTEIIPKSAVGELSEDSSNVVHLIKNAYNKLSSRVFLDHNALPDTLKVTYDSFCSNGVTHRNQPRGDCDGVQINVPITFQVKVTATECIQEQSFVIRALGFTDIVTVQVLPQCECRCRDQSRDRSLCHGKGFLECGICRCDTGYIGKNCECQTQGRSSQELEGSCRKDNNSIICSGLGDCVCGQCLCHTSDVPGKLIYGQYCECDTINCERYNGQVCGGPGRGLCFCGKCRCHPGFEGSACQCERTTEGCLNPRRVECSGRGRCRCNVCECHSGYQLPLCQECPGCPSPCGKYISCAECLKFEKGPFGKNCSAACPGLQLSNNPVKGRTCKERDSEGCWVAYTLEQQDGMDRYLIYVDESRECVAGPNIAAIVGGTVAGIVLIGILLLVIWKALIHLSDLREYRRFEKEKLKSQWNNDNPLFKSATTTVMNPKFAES
ICAM-1/IgG chimera, sequence (P05362 28-480 limits assumed, change not shown): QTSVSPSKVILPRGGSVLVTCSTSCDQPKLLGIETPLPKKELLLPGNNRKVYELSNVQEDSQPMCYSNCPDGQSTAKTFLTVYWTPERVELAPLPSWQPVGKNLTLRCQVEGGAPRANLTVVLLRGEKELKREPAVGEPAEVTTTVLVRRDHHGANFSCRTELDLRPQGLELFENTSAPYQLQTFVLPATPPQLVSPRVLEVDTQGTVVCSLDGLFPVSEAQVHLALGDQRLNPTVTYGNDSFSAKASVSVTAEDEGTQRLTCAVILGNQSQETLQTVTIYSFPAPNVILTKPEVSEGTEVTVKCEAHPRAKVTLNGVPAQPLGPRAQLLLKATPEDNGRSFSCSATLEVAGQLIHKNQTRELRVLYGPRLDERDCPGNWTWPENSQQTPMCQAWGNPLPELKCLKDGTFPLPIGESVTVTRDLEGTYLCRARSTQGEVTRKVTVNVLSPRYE
LFA-1 (CD11a/CD18) on cells, sequence (P20701 26-1170): as the sequence (P20701 26-1170, chain 1 of 2) above
LFA-1 (CD11a/CD18) on cells, sequence (P05107 23-769): as the sequence (P05107 23-769, chain 2 of 2, further chain) above

In turn, “ICAM-R domain 1 peptide NGSQI, residues 72-76” yielded a % Inhibition of cell binding to shICAM-R in test [1] of 26%.
“LFA-1 (CD11a/CD18) on cells (from UniProt P20701 26-1170; P05107 23-769) (receptor; other documents disagree on this pair)” returned a fold increase in binding with ICAM-1/IgG chimera of 2 to 3 fold.
The substance anti-CD11a monoclonal antibody TS1/22 yielded a % inhibition of neutrophil binding to ICAM-R in test [2] of 50%.
The substance anti-CD18 monoclonal antibody 60.3 yielded an Inhibition (%) of CD18-dependent JY cell binding in test [3] of 100%.
